Assay results: patent publication US20200140512A1 (published 2020)
One block for each binder: values may come before it.

Columns and labels:
human PD-1-His = human PD-1-His (human, UniProt Q15116 25-167); assay: Octet
Cyno PD-1 = molecular target: T1, Cyno PD-1; assay: Octet
T1 chain: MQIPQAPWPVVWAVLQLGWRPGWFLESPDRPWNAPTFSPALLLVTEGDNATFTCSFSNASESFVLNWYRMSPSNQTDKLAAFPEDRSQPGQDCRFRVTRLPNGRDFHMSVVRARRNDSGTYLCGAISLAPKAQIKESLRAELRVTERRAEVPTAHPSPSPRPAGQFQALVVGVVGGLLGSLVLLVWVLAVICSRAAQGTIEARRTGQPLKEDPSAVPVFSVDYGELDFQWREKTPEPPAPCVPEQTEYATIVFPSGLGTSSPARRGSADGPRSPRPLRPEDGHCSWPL

Sequence of human PD-1-His (Q15116 25-167): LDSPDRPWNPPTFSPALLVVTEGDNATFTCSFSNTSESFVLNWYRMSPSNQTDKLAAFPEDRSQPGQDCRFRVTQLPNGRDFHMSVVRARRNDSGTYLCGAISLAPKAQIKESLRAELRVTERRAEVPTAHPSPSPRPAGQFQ

- Kd (human PD-1-His): 11.9 nM
B1: XENP28519 (bivalent mAb based on humanized mAb A) (antibody, V domains shown)
VH: QVQLQESGPGLVKPSQTLSLTCTVSGHSITSDYAWNWIRQPPGKKLEWIGYISYSGYTTYNPSLKSRVTISRDTSKNQFSLKLSSVTAADTAVYFCARDLDYGPWFAYWGQGTLVTVSS
VL: DIQMTQSPSSLSASVGDRVTITCRASENIHNYLAWYQQKPGKSPKLLVYNVKTLADGVPSRFSGSGSGTDYTLTISSLQPEDFATYYCQHFWSSPWTFGGGTKVEIKR

- Kd (human PD-1-His): 24 nM
- Kd (Cyno PD-1): 35.8 nM
B2: XENP28536 (bivalent mAb based on humanized mAb C, mAb C[PD-1]_H1L1) (antibody, V domains shown)
VH: EVQLVESGGGLVQPGGSLRLSCAASGFTFSSFGMHWVRQAPGKGLEWVSYISSGSSIIYYADSVKGRFTISRDNAKNSLYLQMNSLRAEDTAVYYCARGGRLVWSPDYWGQGTLVTVSS
VL: DIVMTQSPDSLAVSLGERATINCKSSQSLLNSGNQKNYLTWYQQKPGQPPKLLIYWASTRESGVPDRFTGSGSGTDFTLTISSLQAEDVAVYYCQNDYSYPFTFGSGTKLEIK

- Kd (Cyno PD-1): 42 nM
B3: XENP28537 (humanized variant of anti-PD-1 mAb C, bivalent human IgG1) (antibody, V domains shown)
VH: B2 VH
VL: DIVMTQSPLSLPVTPGEPASISCRSSQSLLNSGNQKNYLTWYLQKPGQPPQLLIYWASTRESGVPDRFTGSGSGTDFTLKISRVEAEDVGVYYCQNDYSYPFTFGSGTKLEIKR
